Assay results from US20040146964.
Where a chain is given by its changes, count along the chain named.

T1: synthetic polypeptide of HIF-1α residues 556-574, unmodified
T1 chain: DLDLEMLAPYIPMDDDFQL

T2: C. elegans HIF-α homologue, wild type
T2 chain: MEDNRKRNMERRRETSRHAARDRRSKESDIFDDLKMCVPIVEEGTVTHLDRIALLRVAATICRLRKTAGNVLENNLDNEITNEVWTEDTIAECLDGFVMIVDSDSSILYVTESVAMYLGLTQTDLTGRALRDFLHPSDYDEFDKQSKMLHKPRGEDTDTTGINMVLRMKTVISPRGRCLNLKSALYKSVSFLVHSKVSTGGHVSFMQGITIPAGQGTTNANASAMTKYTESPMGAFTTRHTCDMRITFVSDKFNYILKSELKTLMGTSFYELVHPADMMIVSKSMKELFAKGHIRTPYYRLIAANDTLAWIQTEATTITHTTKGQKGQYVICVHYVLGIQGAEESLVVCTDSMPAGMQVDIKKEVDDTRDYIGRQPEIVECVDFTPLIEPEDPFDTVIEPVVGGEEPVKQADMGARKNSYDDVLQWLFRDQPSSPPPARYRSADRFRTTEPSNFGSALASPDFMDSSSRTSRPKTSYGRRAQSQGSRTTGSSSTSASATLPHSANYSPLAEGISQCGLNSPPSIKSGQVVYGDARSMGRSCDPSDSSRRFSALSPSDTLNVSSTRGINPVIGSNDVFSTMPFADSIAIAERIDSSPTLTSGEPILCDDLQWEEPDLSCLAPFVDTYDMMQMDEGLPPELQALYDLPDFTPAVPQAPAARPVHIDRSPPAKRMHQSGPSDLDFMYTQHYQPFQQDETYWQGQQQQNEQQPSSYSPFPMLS

B1: recombinant human type II prolyl 4-hydroxylase (protein)
chain 1: EFFTSIGHMTDLIYAEKELVQSLKEYILVEEAKLSKIKSWANKMEALTSKSAADAEGYLAHPVNAYKLVKRLNTDWPALEDLVLQDSAAGFIANLSVQRQFFPTDEDEIGAAKALMRLQDTYRLDPGTISRGELPGTKYQAMLSVDDCFGMGRSAYNEGDYYHTVLWMEQVLKQLDAGEEATTTKSQVLDYLSYAVFQLGDLHRALELTRRLLSLDPSHERAGGNLRYFEQLLEEEREKTLTNQTEAELATPEGIYERPVDYLPERDVYESLCRGEGVKLTPRRQKRLFCRYHHGNRAPQLLIAPFKEEDEWDSPHIVRYYDVMSDEEIERIKEIAKPKLARATVRDPKTGVLTVASYRVSKSSWLEEDDDPVVARVNRRMQHITGLTVKTAELLQVANYGVGGQYEPHFDFSRNDERDTFKHLGTGNRVATFLNYMSDVEAGGATVFPDLGAAIWPKKGTAVFWYNLLRSGEGDYRTRHAACPVLVGCKWVSNKWFHERGQEFLRPCGSTEVD
chain 2: not shown
B2: recombinant C. elegans PHY-1 (protein)
chain: DLFTSIADMQNLLETERNIPKILDKYIHDEEERLVQLKKLSEEYSKKNEISIENGLKDITNPINAFLLIKRKIFDWKEIESKMNANKAGNVVSSITDDSYGVRYPTADDLSGAAIGLLRLQDTYRLDTKDLADGKIYADQGNYTFSAKDCFEIARAAYNEHDFYHTVMWMEEAQRRLGDEVEPTVEVEDILEYLAFALYKQNNLKHALKLTEELYKMNPTHPRAKGNVKWYEDLLEQEGVRRSDMRKNLPPIQNRRPDSVLGNTERTMYEALCRNEVPVSQKDISRLYCYYKRDRPFLVYAPIKVEIKRFNPLAVLFKDVISDDEVAAIQELAKPKLARATVHDSVTGKLVTATYRISKSAWLKEWEGDVVETVNKRIGYMTNLEMETAEELQIANYGIGGHYDPHFDHAKKEESKSFESLGTGNRIATVLFYMSQPSHGGGTVFTEAKSTILPTKNDALFWYNLYKQGDGNPDTRHAACPVLVGIKWVSNKWIHEKGNEFRRPCGLKSSDYERFVGDLGYGPEPRNAPNVSPNLAKDVWETL
B3: human PHD2 (protein)
chain: MANDSGGPGGPSPSERDRQYCELCGKMENLLRCSRCRSSFYCCKEHQRQDWKKHKLVCQGSEGALGHGVGPHQHSGPAPPAAVPPPRAGAREPRKAAARRDNASGDAAKGKVKAKPPADPAAAASPCRAAAGGQGSAVAAEAEPGKEEPPARSSLFQEKANLYPPSNTPGDALSPGGGLRPNGQTKPLPALKLALEYIVPCMNKHGICVVDDFLGKETGQQIGDEVRALHDTGKFTDGQLVSQKSDSSKDIRGDKITWIEGKEPGCETIGLLMSSMDDLIRHCNGKLGSYKINGRTKAMVACYPGNGTGYVRHVDNPNGDGRCVTCIYYLNKDWDAKVSGGILRIFPEGKAQFADIEPKFDRLLFFWSDRRNPHEVQPAYATRYAITVWYFDADERARAKVKYLTGEKGVRVELNKPSDSVGKDVF
B4: recombinant human type I prolyl 4-hydroxylase (protein)
chain 1: HPGFFTSIGQMTDLIHTEKDLVTSLKDYIKAEEDKLEQIKKWAEKLDRLTSTATKDPEGFVGHPVNAFKLMKRLNTEWSELENLVLKDMSDGFISNLTIQRQYFPNDEDQVGAAKALLRLQDTYNLDTDTISKGNLPGVKHKSFLTAEDCFELGKVAYTEADYYHTELWMEQALRQLDEGEISTIDKVSVLDYLSYAVYQQGDLDKALLLTKKLLELDPEHQRANGNLKYFEYIMAKEKDVNKSASDDQSDQKTTPKKKGVAVDYLPERQKYEMLCRGEGIKMTPRRQKKLFCRYHDGNRNPKFILAPAKQEDEWDKPRIIRFHDIISDAEIEIVKDLAKPRLRRATISNPITGDLETVHYRISKSAWLSGYENPVVSRINMRIQDLTGLDVSTAEELQVANYGVGGQYEPHFDFARKDEPDAFKELGTGNRIATWLFYMSDVSAGGATVFPEVGASVWPKKGTAVFWYNLFASGEGDYSTRHAACPVLVGNKWVSNKWLHERGQEFRRPCTLSELE
chain 2: not shown
B5: rat SM-20, full length (protein)
chain: MPLGHIMRLDLEKIALEYIVPCLHEVGFCYLDNFLGEVVGDCVLERVKQLHYNGALRDGQLAGPRAGVSKRHLRGDQITWIGGNEEGCEAINFLLSLIDRLVLYCGSRLGKYYVKERSKAMVACYPGNGTGYVRHVDNPNGDGRCITCIYYLNKNWDAKLHGGVLRIFPEGKSFVADVEPIFDRLLFSWSDRRNPHEVQPSYATRYAMTVWYFDAEERAEAKKKFRNLTRKTESALAKD
B6: human PHD3 (protein)
chain: B5 chain with Y52C, N53T, N92S, V164I, V175I, S188F, A237T, K238E
B7: recombinant C. elegans PHY-2 (protein)
chain: DLFTAIADLQHMLGAEKDVTTIIDQYIEAERARLDDLRRYAHEYVHRNAHAESVGPEFVTNPINAYLLIKRLTTEWKKVENIMLNNKASTFLKNITDNRVRSEVKFPGEEDLSGAATALLRLQDTYSLDTLDLSNGIIGGEKVSNKLSGHDTFEVGRSAYNQKDYYHCLMWMQVALVKIENENPPTIEEWEILEYLAYSLYQQGNVRRALSLTKRLAKIAPNHPRAKGNVKWYEDMLQGKDMVGDLPPIVNKRVEYDGIVERDAYEALCRGEIPPVEPKWKNKLRCYLKRDKPFLKLAPIKVEILRFDPLAVLFKNVIHDSEIEVIKELASPKLKRATVQNSKTGELEHATYRISKSAWLKGDLDPVIDRVNRRIEDFTNLNQATSEELQVANYGLGGHYDPHFDFARKEEKNAFKTLNTGNRIATVLFYMSQPERGGATVFNHLGTAVFPSKNDALFWYNLRRDGEGDLRTRHAACPVLLGVKWVSNKWIHEKGQEFTRPCGLEEEVQENFIGDLSPYANDP

How the values were obtained:
[1] = target: T1, synthetic polypeptide of HIF-1α …
[2] = target: T2, C. elegans HIF-α homologue, wild type
[3] = target: human HIF-1α, full length wild type
[4] = target: full length HIF-1α double mutant P402A+P564G
Sequence of full length HIF-1α double mutant P402A+P564G (chain, as listed by the source P402A P564G): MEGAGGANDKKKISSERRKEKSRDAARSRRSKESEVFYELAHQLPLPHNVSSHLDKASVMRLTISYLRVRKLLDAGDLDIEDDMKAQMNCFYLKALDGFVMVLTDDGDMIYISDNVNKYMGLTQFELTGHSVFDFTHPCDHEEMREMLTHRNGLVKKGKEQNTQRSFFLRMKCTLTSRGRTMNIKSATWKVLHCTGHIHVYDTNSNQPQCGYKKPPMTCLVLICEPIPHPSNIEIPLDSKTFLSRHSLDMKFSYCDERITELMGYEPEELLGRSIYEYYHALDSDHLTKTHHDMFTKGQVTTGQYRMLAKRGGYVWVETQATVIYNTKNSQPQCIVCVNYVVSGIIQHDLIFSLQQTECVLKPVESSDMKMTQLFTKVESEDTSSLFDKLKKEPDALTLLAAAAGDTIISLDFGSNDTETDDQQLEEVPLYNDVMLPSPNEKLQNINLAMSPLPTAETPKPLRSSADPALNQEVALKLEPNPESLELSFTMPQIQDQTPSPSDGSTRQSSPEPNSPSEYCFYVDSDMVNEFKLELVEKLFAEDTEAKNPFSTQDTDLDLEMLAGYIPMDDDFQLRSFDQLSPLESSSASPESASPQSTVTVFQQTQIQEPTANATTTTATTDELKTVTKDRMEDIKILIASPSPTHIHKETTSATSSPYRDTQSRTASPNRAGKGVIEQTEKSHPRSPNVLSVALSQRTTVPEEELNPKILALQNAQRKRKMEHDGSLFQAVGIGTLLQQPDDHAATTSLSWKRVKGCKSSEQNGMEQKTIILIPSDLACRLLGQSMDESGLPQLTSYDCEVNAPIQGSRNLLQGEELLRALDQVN

Sequence of full length HIF-1α P402A (chain, as listed by the source P402A): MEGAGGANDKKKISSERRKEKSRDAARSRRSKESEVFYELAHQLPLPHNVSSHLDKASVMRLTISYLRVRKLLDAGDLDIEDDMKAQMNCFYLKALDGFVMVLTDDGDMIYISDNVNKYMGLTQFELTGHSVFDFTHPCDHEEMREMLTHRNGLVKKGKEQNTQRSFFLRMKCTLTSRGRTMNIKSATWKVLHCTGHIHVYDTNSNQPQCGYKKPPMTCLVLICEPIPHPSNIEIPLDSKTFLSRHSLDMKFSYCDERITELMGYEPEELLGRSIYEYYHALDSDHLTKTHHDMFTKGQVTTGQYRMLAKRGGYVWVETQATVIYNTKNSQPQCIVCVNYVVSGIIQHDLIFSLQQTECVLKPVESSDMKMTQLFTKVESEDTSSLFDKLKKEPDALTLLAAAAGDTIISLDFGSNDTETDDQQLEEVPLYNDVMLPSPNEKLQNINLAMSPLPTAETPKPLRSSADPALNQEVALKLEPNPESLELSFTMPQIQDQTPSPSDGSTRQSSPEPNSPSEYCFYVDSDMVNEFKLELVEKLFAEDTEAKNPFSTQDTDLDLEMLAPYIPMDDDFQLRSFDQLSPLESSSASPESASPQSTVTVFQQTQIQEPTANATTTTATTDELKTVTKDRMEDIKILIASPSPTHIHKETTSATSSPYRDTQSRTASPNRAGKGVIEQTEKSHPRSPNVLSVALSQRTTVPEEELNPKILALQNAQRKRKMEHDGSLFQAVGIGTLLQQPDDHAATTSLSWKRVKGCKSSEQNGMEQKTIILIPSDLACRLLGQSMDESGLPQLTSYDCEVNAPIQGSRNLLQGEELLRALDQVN
Sequence of full length HIF-1α P564G (chain, as listed by the source P564G): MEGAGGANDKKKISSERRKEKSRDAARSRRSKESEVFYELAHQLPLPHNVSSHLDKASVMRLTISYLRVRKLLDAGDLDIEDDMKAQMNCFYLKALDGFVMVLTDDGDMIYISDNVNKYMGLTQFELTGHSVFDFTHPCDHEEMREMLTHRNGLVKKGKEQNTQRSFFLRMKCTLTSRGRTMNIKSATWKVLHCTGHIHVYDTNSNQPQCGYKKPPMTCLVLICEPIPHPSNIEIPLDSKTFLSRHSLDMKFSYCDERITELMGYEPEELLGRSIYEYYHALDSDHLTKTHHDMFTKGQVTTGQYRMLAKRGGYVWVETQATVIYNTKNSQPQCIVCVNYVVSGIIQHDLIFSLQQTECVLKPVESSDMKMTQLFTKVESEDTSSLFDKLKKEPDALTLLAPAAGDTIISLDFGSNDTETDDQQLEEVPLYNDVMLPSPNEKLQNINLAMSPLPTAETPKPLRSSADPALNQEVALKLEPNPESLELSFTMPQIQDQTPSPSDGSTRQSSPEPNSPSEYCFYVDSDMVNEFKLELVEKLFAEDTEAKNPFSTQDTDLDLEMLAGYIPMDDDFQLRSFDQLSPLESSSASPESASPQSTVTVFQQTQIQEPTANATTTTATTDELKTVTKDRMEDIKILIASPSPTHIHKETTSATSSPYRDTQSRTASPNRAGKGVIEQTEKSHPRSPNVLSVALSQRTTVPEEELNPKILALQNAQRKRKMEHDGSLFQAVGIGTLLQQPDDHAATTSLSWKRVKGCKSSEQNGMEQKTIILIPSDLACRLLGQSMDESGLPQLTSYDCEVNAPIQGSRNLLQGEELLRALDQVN

Row | Protein | promotion of the HIFα/VHL E3 interaction (anti-HA IP with 786-0/VHL extract) [3] | promotion of VHL E3 capture (negative) [4] | promotion of VHL E3 capture via the C-terminal (P564) site (full length HIF-1α P402A) | other results
1 | B1 |  |  |  | prolyl 4-hydroxylase activity (hydroxylation-coupled decarboxylation of 2-oxoglutarate) [1]: the HIF polypeptide showed no activity
2 | B2 |  |  |  | modification of HIF-1 read by HA.VHL-1 capture [2]: had no activity in these assays
3 | B3 | With full length wild-type HIF-1α, striking activity was observed with rat SM-20 and all three human gene products | No activity at all was observed with a double HIF-1α mutant, P402A P564G, that ablates both hydroxylation sites | interaction through the C-terminal site could be promoted by all enzymes | promotion of VHL E3 capture via the N-terminal (P402) site (full length HIF-1α P564G): VHL E3 capture was less efficient when only the N-terminal site (P402) was intact, and was only promoted by EGLN2 (PHD1) and EGLN1(PHD2)
4 | B4 |  |  |  | prolyl 4-hydroxylase activity (hydroxylation-coupled decarboxylation of 2-oxoglutarate) [1]: the HIF polypeptide showed no activity
5 | B5 | With full length wild-type HIF-1α, striking activity was observed with rat SM-20 and all three human gene products | No activity at all was observed with a double HIF-1α mutant, P402A P564G, that ablates both hydroxylation sites | interaction through the C-terminal site could be promoted by all enzymes | 
6 | B6 | With full length wild-type HIF-1α, striking activity was observed with rat SM-20 and all three human gene products | No activity at all was observed with a double HIF-1α mutant, P402A P564G, that ablates both hydroxylation sites | interaction through the C-terminal site could be promoted by all enzymes | 
7 | B7 |  |  |  | modification of HIF-1 read by HA.VHL-1 capture [2]: had no activity in these assays
